This is an account of results in EP2014310A2 (Dyax Corporation, dated 2009).

Bridge positions count the residues as written; N and C are the ends. Ends that are not written are not given here. I, II: the chains in the order shown.

Assay [1] concerns the target T1, KDR on transiently KDR-transfected 293H cells (human, UniProt P35968 20-1356).
T1 construct: whole, on cells; also called KDR-expressing cells
As to the kind of experiment: displacement of 5.5 nM peptide/streptavidin-HRP complex from KDR-transfected 293H cells.

The target of assay [2] is T2, murine KDR-Fc fusion (R&D Systems #443-KD-050) (murine, UniProt P35918 20-762).
T2 construct: bought; also called recombinant murine KDR-Fc; rmKDR-Fc
T2 sequence (P35918 20-762): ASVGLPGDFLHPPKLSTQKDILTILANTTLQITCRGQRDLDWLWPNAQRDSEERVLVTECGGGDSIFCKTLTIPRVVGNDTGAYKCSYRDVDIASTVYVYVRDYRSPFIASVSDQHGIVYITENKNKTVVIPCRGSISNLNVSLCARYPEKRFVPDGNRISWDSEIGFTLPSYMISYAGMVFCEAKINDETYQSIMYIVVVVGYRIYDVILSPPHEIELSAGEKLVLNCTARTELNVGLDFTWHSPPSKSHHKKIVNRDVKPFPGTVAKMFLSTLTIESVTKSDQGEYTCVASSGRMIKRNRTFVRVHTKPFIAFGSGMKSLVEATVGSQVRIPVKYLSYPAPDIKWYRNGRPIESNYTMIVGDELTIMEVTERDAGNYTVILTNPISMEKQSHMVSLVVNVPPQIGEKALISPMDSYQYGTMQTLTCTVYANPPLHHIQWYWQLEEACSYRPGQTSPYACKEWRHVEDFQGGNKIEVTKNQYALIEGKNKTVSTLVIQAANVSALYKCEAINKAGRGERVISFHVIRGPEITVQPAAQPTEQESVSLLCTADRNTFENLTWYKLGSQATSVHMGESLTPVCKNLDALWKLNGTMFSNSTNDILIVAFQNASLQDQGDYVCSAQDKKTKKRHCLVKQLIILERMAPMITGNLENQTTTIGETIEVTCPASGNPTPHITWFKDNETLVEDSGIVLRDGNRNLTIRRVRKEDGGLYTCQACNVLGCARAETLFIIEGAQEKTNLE
As to the kind of experiment: BIAcore, KD1 = kd1/ka1, fluorescein-labeled peptide, murine KDR-Fc 2700RU.

The target of assay [3] is T2, murine KDR-Fc fusion (R&D Systems …). Put plainly: BIAcore, KD1 = kd1/ka1, fluorescein-labeled peptide, murine KDR-Fc 5000RU. Background: SPR reads the build-up and loss of mass on a sensor chip optically.
For assay [4] the target is unchanged. Put plainly: BIAcore, KD1 = kd1/ka1, murine KDR-Fc 5000RU.
For assay [5], the target named is KDR on human umbilical vein endothelial cells (HUVECs) (human, UniProt P35968 20-1356). As to the kind of experiment: cell-based or functional assay.
KDR on human umbilical vein endothelial cells (HUVECs), sequence (P35968 20-1356): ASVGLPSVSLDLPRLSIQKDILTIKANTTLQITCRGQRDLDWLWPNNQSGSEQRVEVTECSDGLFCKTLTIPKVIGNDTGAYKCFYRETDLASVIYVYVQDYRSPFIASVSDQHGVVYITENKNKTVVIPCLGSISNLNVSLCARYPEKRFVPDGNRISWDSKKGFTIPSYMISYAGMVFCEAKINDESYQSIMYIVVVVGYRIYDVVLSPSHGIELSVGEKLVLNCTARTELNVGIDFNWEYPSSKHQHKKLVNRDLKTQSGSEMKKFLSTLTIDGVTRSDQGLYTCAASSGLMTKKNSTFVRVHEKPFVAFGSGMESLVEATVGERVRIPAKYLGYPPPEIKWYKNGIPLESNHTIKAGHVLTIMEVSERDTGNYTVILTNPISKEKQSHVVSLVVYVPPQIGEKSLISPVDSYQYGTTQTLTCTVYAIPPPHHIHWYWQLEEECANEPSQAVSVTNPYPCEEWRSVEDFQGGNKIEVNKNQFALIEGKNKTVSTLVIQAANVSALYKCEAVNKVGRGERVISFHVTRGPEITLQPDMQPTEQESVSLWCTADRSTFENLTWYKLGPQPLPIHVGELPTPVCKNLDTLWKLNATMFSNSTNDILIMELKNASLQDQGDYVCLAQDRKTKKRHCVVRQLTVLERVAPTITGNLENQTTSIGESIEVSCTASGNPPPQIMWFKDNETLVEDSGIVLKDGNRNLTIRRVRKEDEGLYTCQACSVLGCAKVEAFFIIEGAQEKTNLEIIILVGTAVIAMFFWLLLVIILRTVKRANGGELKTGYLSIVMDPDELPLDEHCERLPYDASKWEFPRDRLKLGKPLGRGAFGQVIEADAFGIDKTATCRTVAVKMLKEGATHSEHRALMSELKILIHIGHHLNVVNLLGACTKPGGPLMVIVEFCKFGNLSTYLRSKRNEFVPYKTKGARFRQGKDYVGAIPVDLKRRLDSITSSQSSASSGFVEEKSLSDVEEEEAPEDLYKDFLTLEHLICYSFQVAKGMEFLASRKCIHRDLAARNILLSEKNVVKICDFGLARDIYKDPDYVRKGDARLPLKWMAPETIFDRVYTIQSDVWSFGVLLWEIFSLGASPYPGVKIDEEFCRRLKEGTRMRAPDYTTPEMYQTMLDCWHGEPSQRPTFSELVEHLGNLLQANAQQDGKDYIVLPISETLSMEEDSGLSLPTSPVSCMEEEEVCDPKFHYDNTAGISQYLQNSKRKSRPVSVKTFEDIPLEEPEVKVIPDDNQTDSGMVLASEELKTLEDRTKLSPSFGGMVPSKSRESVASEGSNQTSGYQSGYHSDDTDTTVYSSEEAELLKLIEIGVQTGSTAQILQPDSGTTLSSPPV
In assay [6] the target is human KDR-Fc fusion (R&D Systems #357-KD-050) (human) (UniProt P35968). Put plainly: SPR, reference D2.
human KDR-Fc fusion (R&D Systems #357-KD-050) (human), sequence (P35968 20-764): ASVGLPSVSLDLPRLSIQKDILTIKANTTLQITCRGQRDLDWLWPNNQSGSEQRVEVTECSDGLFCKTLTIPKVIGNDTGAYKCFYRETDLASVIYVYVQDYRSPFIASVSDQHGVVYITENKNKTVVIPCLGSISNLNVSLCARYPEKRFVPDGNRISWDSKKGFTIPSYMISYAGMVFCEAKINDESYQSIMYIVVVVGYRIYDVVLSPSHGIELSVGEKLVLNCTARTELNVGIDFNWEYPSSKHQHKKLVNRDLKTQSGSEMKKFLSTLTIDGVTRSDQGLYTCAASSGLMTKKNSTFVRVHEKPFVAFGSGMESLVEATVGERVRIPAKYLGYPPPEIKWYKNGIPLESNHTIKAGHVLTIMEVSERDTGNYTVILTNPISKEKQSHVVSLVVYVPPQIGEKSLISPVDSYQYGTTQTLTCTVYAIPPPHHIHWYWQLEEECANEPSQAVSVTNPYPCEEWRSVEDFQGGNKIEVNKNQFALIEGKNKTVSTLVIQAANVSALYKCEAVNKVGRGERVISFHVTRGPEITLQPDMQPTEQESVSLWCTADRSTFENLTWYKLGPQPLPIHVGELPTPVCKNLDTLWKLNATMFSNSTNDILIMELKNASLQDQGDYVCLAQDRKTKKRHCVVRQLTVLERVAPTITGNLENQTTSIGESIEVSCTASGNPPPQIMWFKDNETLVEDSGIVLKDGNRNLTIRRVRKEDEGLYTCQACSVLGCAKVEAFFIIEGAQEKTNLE
Assay [7] has as its target T2, murine KDR-Fc fusion (R&D Systems …). As to the kind of experiment: BIAcore, KD1 = kd1/ka1, murine KDR-Fc 2700RU.
The target of assay [8] is T1, KDR on transiently KDR-transfected 293H …. Put plainly: displacement of 5.5 nM streptavidin-HRP/binding peptide complex from KDR-transfected 293H cells.
For assay [9], the target named is VEGF165 (Peprotech #100-20) (UniProt P15692-4 27-191). Put plainly: fluorescence anisotropy, fluorescein-labeled peptide, VEGF alone. (In fluorescence polarisation assays a small probe gives low polarisation when free and higher when bound to something large.)
VEGF165 (Peprotech #100-20), sequence (P15692 other isoform, or with tags, fused parts or gaps limits assumed): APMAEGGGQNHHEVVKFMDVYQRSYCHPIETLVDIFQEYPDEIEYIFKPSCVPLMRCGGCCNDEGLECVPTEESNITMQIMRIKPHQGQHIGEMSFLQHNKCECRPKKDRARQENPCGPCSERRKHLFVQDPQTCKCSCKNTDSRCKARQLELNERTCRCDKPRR
The target in assay [10] is T3, human KDR-Fc fusion (R&D Systems #357-KD-050) (human, UniProt P35968 20-764).
T3 construct: bought
T3 sequence (P35968 20-764): as the sequence (P35968 20-764) above
Put plainly: fluorescence anisotropy, fluorescein-labeled peptide.

Assay [11] has as its target T4, KDR/VEGF complex (KDR-Fc mixed or saturated with VEGF) (human, UniProt P35968 20-764; P15692 27-191).
T4 construct: anisotropy: two fold molar excess of VEGF mixed with KDR-Fc; Biacore: KDR-Fc chip saturated with VEGF; also called KDR:VEGF165 complex
Put plainly: fluorescence anisotropy, fluorescein-labeled peptide, KDR-Fc with two fold excess VEGF.

In assay [12] the target is T3, human KDR-Fc fusion (R&D Systems …). Put plainly: Biacore steady state, KD1 of double rectangular hyperbola, KDR-Fc 3000RU.
Assay [13] shares this target. As to the kind of experiment: Biacore steady state at the higher immobilization densities.
Assay [14] shares this target. As to the kind of experiment: Biacore steady state, KD1 of double rectangular hyperbola, KDR-Fc 1600RU.
Assay [15] has the same target. Put plainly: Biacore steady state, KD1 of double rectangular hyperbola, KDR-Fc 6000RU.

T1 sequence (P35968 20-1356): as the sequence (P35968 20-1356) above
T4 sequence (P35968 20-764, chain 1 of 2): as the sequence (P35968 20-764) above
T4 sequence (P15692 other isoform, or with tags, fused parts or gaps, chain 2 of 2): as the sequence (P15692 other isoform, or with tags, fused parts or gaps limits assumed) above

Consider DWYYGGGK [SEQ ID NO:462, fragment of SEQ ID NO:356 (Asp-Trp-Tyr-Tyr motif with Gly-Gly-Gly-Lys)], for which the IC50 (as a rule, the concentration that inhibits the measured activity by half) in [1] is 850 nM.
For Ac-AGPTWCEDDWYYCWLFGTGGGK-NH2 (disulfide 6-13 (inferred); not fully specified) [SEQ ID NO:277], the Kd (as a rule, a measure of binding affinity in units of concentration) was 36.4 nM in [2] and 33.6 nM in [3].

B1: dimer 1 (D1) (peptide)
peptide 1: Ac-AGPTWCEDDWYYCWLFGTGGGK
peptide 2: Ac-VCWEDSWGGEVCFRYDPGGG
modifications: cysteine pairing not given here; also: heterodimer, C-terminal Lys joined through Biotin-JJK-glutaryl-JJ linker to the second peptide, amide, C-terminus joined to a lysine amide of the linker
Consider B1, for which the dissociation constant Kd in assay [4] came out at 16 nM; in [7], 17.5 nM. Moreover, in assay [5], the “IC50, VEGF-induced phosphorylation of KDR in HUVECs” value was in the range of 0.5 to 1 nM. This molecule yielded a fold higher affinity than D2 in [6] of 10 fold.
As to Ac-AGPTWKEDDWYYEWLFGTGGGK-NH2 (lactam 6-13) [SEQ ID NO:454, lactam disulfide bridge replacement analog], in assay [8], the IC50 turned out to be 108 nM.

B2: SEQ ID NO:320 (peptide)
peptide: Ac-AGMPWCVEKDHWDCWWWGTGGGK-NH2
modifications: disulfide 6-14 (inferred); not fully specified; also: C-terminal Lys fluorescein-labeled in some assay forms
On to B2, for which the results for the Kd in assay [9] and in assay [11] were 10000 nM and 140 nM, respectively. Further, the binding result in assay [10] is “no binding”.

B3: D6, peptide heterodimer composed of SEQ ID NO:277 and SEQ ID NO:294 (peptide)
peptide 1: AGPTWCEDDWYYCWLFGTGGGK
peptide 2: GDSRVCWEDSWGGEVCFRYDPGGGK
modifications: linker (positions not given here) via glutaric acid; disulfide I:6-I:13, II:6-II:16 (inferred); also: heterodimer joined by glutaric acid linker, attachment places not given here
notes: made with glutaric acid bis N-hydroxysuccinimidyl ester
Regarding B3, the Kd in assay [12] is 25.5 nM; in [13], around 0.6 nM; in assay [14], 46 nM; in [15], 17 nM. Besides, the “IC50, VEGF-induced migration of HUVECs” value in assay [5] was around 12.5 nM.
